The source of these data is US20160209421A1 (UNIVERSITY OF TOKYO, published 2016).

Bridge positions count the residues as written; N and C are the ends. Square brackets hold non-standard residues; d marks the D form. * marks the point of attachment. chloroacetamidine = chloroacetamidine warhead on ornithine δ-NH2, N=C(CCl)*; Ahp(2) = CCCCC[C@H](N)C(=O)O; Orn = NCCC[C@H](N)C(=O)O

For test [1], the target named is Human PAD4 (human, UniProt Q9UM07 1-663). As to the kind of experiment: cell-based or functional assay.
Sequence of Human PAD4 (Q9UM07 whole entry): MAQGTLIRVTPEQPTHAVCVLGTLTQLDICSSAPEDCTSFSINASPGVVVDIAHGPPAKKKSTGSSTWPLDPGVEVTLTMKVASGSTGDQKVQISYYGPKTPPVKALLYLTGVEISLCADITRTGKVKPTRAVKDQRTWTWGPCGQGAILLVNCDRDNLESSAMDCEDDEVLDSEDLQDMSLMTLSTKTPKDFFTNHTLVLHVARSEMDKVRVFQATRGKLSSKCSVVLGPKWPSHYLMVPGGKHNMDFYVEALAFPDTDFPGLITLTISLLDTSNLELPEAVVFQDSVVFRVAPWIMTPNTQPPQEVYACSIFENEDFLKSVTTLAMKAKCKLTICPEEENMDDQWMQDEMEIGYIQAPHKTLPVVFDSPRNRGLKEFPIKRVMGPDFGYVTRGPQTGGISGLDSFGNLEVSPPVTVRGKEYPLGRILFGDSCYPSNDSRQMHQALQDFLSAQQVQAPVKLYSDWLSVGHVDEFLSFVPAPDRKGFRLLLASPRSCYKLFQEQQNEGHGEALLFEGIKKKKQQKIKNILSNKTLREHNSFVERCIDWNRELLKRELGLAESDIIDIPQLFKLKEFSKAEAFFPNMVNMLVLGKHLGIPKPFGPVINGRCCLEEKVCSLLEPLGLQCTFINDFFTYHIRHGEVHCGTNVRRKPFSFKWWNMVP
The target of test [2] is T1, His-PAD4 (human, UniProt Q9UM07 1-663).
T1 construct: Immobilised on a Ni-NTA sensor chip for SPR; No other PAD4 is described; also called peptidyl arginine deaminase 4; not shown: His tag
T1 sequence (Q9UM07 whole entry): as above
The experiment in a line: SPR (Biacore T100, Ni-NTA sensor chip, His-PAD4 immobilized, peptide injected, 25 C). On the procedure: Analysis of a reaction rate was performed at 25° C. using Biacore T100 instrument (GE healthcare) and a Ni-NTA sensor chip. His-PAD4 was immobilized on a chip surface. In any experiment, modified HBS-EP+(10 mM HEPES-KOH [pH 7.4], 150 mM NaCl, 50 μM EDTA, 0.05% Tween 20, 0.1% DMSO) was used as a running buffer. The reaction rate data were corrected by injecting five peptides having respectively different concentrations for one minute at a flow rate (10 mM HEPES-KOH [pH 7.4], 150 mM NaCl, 50 μM EDTA, 0.05% Tween 20, 0.1% DMSO). Peptide dissociation was performed for one minute during injection and for 3 minutes after the last injection.
Background binding was monitored by performing blank buffer injection twice before sample injection and once after sample injection in order to double reference with the surface of a negative control having no His-PAD4 bound thereto but having nickel. The binding sensorgram, the binding sensorgram was analyzed using the Biacore software.
(In general: SPR reads the build-up and loss of mass on a sensor chip optically.)

A word on the Kd: it is the concentration at which binding is half-saturated. In general, koff refers to a measure of how fast the partners let go of each other. A low value points to slow dissociation. As a reminder, the kon is the rate constant with which the complex forms.

B1: VB1C12-Cl-amidine analog (peptide)
peptide: {CH2CO}-[dF]NA[Ahp(2)]YPY[Orn](chloroacetamidine)PP[Ahp(2)]TSC-NH2
modifications: thioether N-14
SMILES: CCCCC[C@@H]1NC(=O)[C@H](C)NC(=O)[C@H](CC(N)=O)NC(=O)[C@@H](Cc2ccccc2)NC(=O)CSC[C@@H](C(N)=O)NC(=O)[C@H](CO)NC(=O)[C@H]([C@@H](C)O)NC(=O)[C@H](CCCCC)NC(=O)[C@@H]2CCCN2C(=O)[C@@H]2CCCN2C(=O)[C@H](CCCNC(=N)CCl)NC(=O)[C@H](Cc2ccc(O)cc2)NC(=O)[C@@H]2CCCN2C(=O)[C@H](Cc2ccc(O)cc2)NC1=O
In the case of B1, in test [1], the “IC50 (read off the curve)” value was ~8000 nM.

B2: VB1C12 peptide (peptide)
peptide: {CH2CO}-[dF]NA[Ahp(2)]YPYRPP[Ahp(2)]TSC-NH2
modifications: thioether N-14
SMILES: CCCCC[C@@H]1NC(=O)[C@H](C)NC(=O)[C@H](CC(N)=O)NC(=O)[C@@H](Cc2ccccc2)NC(=O)CSC[C@@H](C(N)=O)NC(=O)[C@H](CO)NC(=O)[C@H]([C@@H](C)O)NC(=O)[C@H](CCCCC)NC(=O)[C@@H]2CCCN2C(=O)[C@@H]2CCCN2C(=O)[C@H](CCCNC(=N)N)NC(=O)[C@H](Cc2ccc(O)cc2)NC(=O)[C@@H]2CCCN2C(=O)[C@H](Cc2ccc(O)cc2)NC1=O
For the molecule B2, in test [2], the Kd came out at 55 nM, the koff turned out to be 0.00664 s⁻¹ and the on-rate (kon) amounted to 121000 M⁻¹ s⁻¹.

B3: VB1C20 peptide (peptide)
peptide: {CH2CO}-[dF]DA[Ahp(2)]YPFRPP[Ahp(2)]AHC-NH2
modifications: thioether N-14
SMILES: CCCCC[C@@H]1NC(=O)[C@H](C)NC(=O)[C@H](CC(=O)O)NC(=O)[C@@H](Cc2ccccc2)NC(=O)CSC[C@@H](C(N)=O)NC(=O)[C@H](Cc2c[nH]cn2)NC(=O)[C@H](C)NC(=O)[C@H](CCCCC)NC(=O)[C@@H]2CCCN2C(=O)[C@@H]2CCCN2C(=O)[C@H](CCCNC(=N)N)NC(=O)[C@H](Cc2ccccc2)NC(=O)[C@@H]2CCCN2C(=O)[C@H](Cc2ccc(O)cc2)NC1=O
With B3, in test [2], binding was put at a Kd of 38.7 nM, the koff came to 0.00356 s⁻¹ and the on-rate constant (kon) worked out at 92100 M⁻¹ s⁻¹.
